Assay results published in patent publication US5773001 (American Cyanamid Company, dated 1998).
Like-named read-outs stand apart in the source and are kept apart here. Blank lines part the entries; values can stand above or below the molecule they belong to.

What was measured:
CD33 antigen (human) [1] = molecular target: CD33 antigen (human) (UniProt P20138)
CD33 antigen (human) [2] = molecular target: CD33 antigen (human) (UniProt P20138); assay: competition with 125I-labelled native antibody on HEL 92.1.7 cells; IC50 (reference) / IC50 (sample)
CD33 antigen (human) [3] = molecular target: CD33 antigen (human) (UniProt P20138); remark: listed apart in the source
CD33 antigen (human) [4] = molecular target: CD33 antigen (human) (UniProt P20138); remark: listed apart in the source
[5] = molecular target: T1, glycoprotein antigen present on colon cancer cells, recognized by A33 (Homo sapiens (Human)) (UniProt Q99795)
T1 sequence: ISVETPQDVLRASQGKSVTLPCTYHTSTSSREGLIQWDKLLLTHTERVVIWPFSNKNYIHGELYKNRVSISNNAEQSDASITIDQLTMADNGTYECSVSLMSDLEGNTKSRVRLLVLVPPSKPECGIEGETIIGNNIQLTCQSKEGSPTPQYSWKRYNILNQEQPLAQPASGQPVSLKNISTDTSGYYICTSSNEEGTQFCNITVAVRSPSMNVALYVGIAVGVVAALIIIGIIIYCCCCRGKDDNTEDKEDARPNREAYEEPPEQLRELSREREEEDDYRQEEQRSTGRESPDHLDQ

[6] = molecular target: T1, glycoprotein antigen present on colon cancer cells, recognized by A33 (Homo sapiens (Human)); assay: competition with 125I-labelled native antibody on COLO 205 cells; IC50 (reference) / IC50 (sample)
CD33 antigen (human) [7] = molecular target: CD33 antigen (human) (UniProt P20138); remark: listed apart in the source
[8] = molecular target: T1, glycoprotein antigen present on colon cancer cells, recognized by A33 (Homo sapiens (Human)); remark: listed apart in the source
CD33 antigen (human) [9] = molecular target: CD33 antigen (human) (UniProt P20138); remark: listed apart in the source
CD33 antigen (human) [10] = molecular target: CD33 antigen (human) (UniProt P20138); remark: listed apart in the source
CD33 antigen (human) [11] = molecular target: CD33 antigen (human) (UniProt P20138); assay: competition with 125I-labelled native antibody on HEL 92.1.7 cells; IC50 (reference) / IC50 (sample); remark: listed apart in the source
CD33 antigen (human) [12] = molecular target: CD33 antigen (human) (UniProt P20138); remark: listed apart in the source
CD33 antigen (human) [13] = molecular target: CD33 antigen (human) (UniProt P20138); remark: listed apart in the source
CD33 antigen (human) [14] = molecular target: CD33 antigen (human) (UniProt P20138); remark: listed apart in the source

In vitro IC50 (3H-thymidine incorporation) (CD33 antigen (human) [1]): 0.087 ng/mL
Rel. Affinity (CD33 antigen (human) [2]): 0.7
Molecule: Conjugate of 4-(4-formylphenoxy)butanoic acid (9) condensed with Calicheamicin N-acetyl gamma dimethyl hydrazide and m-P67.6 (antibody)

In vitro IC50 (3H-thymidine incorporation) [5]: 3.55 ng/mL
Rel. Affinity [6]: 0.91
Molecule: Conjugate of 4-(4-acetylphenoxy)butanoic acid (7) condensed with calicheamicin gamma dimethyl hydrazide and h-A33 (antibody)

In vitro IC50 (3H-thymidine incorporation) (CD33 antigen (human) [7]): 0.38 ng/mL
Rel. Affinity (CD33 antigen (human) [2]): 1
Molecule: Conjugate of 4-(3-formylphenoxy)butanoic acid (8) condensed with Calicheamicin N-acetyl gamma dimethyl hydrazide and m-P67.6 (antibody)

In vitro IC50 (3H-thymidine incorporation) (CD33 antigen (human) [9]): 0.12 ng/mL
Rel. Affinity (CD33 antigen (human) [2]): 0.73
Molecule: Conjugate of 4-formylbenzenepropanoic acid (12) condensed with Calicheamicin N-acetyl gamma dimethyl hydrazide and m-P67.6 (antibody)

In vitro IC50 (3H-thymidine incorporation) (CD33 antigen (human) [10]): 0.45 ng/mL
Rel. Affinity (CD33 antigen (human) [11]): 1.16
B1: Conjugate of 4-(4-acetyl-2-methylphenoxy)butanoic acid (10) condensed with Calicheamicin N-acetyl gamma dimethyl hydrazide and h-P67.6 (antibody, V domains shown)
VH: EVQLVQSGAEVKKPGSSVKVSCKASGYTITDSNIHWVRQAPGQSLEWIGYIYPYNGGTDYNQKFKNRATLTVDNPTNTAYMELSSLRSEDTDFYYCVNGNPWLAYWGQGTLVTVSS
VL: DIQLTQSPSTLSASVGDRVTITCRASESLDNYGIRFLTWFQQKPGKAPKLLMYAASNQGSGVPSRFSGSGSGTEFTLTISSLQPDDFATYYCQQTKEVPWSFGQGTKVEVKR
modifications: drug-linker amide on lysine side chains, sites not stated; drug-linker amide on lysine side chains, sites not stated

In vitro IC50 (3H-thymidine incorporation) (CD33 antigen (human) [12]): 1 ng/mL
Rel. Affinity (CD33 antigen (human) [11]): 0.73
B2: Conjugate of 4-formylbenzenepropanoic acid (12) condensed with Calicheamicin N-acetyl gamma dimethyl hydrazide and h-P67.6 (antibody, V domains shown)
VH: EVQLVQSGAEVKKPGSSVKVSCKASGYTITDSNIHWVRQAPGQSLEWIGYIYPYNGGTDYNQKFKNRATLTVDNPTNTAYMELSSLRSEDTDFYYCVNGNPWLAYWGQGTLVTVSS
VL: DIQLTQSPSTLSASVGDRVTITCRASESLDNYGIRFLTWFQQKPGKAPKLLMYAASNQGSGVPSRFSGSGSGTEFTLTISSLQPDDFATYYCQQTKEVPWSFGQGTKVEVKR
modifications: drug-linker amide on lysine side chains, sites not stated; drug-linker amide on lysine side chains, sites not stated

Continued, molecule first:

Molecule: Conjugate of 4-(4-acetyl-2-methylphenoxy)butanoic acid (10) condensed with Calicheamicin N-acetyl gamma dimethyl hydrazide and m-P67.6 (antibody)
In vitro IC50 (3H-thymidine incorporation) (CD33 antigen (human) [3]): 0.041 ng/mL
Rel. Affinity (CD33 antigen (human) [2]): 1.07

Molecule: Conjugate of 4-(4-formyl-2-methoxyphenoxy)butanoic acid (11) condensed with Calicheamicin N-acetyl gamma dimethyl hydrazide and m-P67.6 (antibody)
In vitro IC50 (3H-thymidine incorporation) (CD33 antigen (human) [4]): 0.13 ng/mL
Rel. Affinity (CD33 antigen (human) [2]): 0.22

Molecule: Conjugate of 4-(4-acetylphenoxy)butanoic acid (7) condensed with calicheamicin N-acetyl gamma dimethyl hydrazide and h-A33 (antibody)
In vitro IC50 (3H-thymidine incorporation) [8]: 4.03 ng/mL
Rel. Affinity [6]: 1.13

B3: Conjugate of 4-(4-formyl-2-methoxyphenoxy)butanoic acid (11) condensed with Calicheamicin N-acetyl gamma dimethyl hydrazide and h-P67.6 (antibody, V domains shown)
VH: EVQLVQSGAEVKKPGSSVKVSCKASGYTITDSNIHWVRQAPGQSLEWIGYIYPYNGGTDYNQKFKNRATLTVDNPTNTAYMELSSLRSEDTDFYYCVNGNPWLAYWGQGTLVTVSS
VL: DIQLTQSPSTLSASVGDRVTITCRASESLDNYGIRFLTWFQQKPGKAPKLLMYAASNQGSGVPSRFSGSGSGTEFTLTISSLQPDDFATYYCQQTKEVPWSFGQGTKVEVKR
modifications: drug-linker amide on lysine side chains, sites not stated; drug-linker amide on lysine side chains, sites not stated
In vitro IC50 (3H-thymidine incorporation) (CD33 antigen (human) [13]): 3.8 ng/mL
Rel. Affinity (CD33 antigen (human) [11]): 0.73

B4: Conjugate of 4-(2,3-dimethoxy-5-formylphenoxy)butanoic acid (13) condensed with Calicheamicin N-acetyl gamma dimethyl hydrazide and h-P67.6 (antibody, V domains shown)
VH: EVQLVQSGAEVKKPGSSVKVSCKASGYTITDSNIHWVRQAPGQSLEWIGYIYPYNGGTDYNQKFKNRATLTVDNPTNTAYMELSSLRSEDTDFYYCVNGNPWLAYWGQGTLVTVSS
VL: DIQLTQSPSTLSASVGDRVTITCRASESLDNYGIRFLTWFQQKPGKAPKLLMYAASNQGSGVPSRFSGSGSGTEFTLTISSLQPDDFATYYCQQTKEVPWSFGQGTKVEVKR
modifications: drug-linker amide on lysine side chains, sites not stated; drug-linker amide on lysine side chains, sites not stated
In vitro IC50 (3H-thymidine incorporation) (CD33 antigen (human) [14]): 1.1 ng/mL
Rel. Affinity (CD33 antigen (human) [11]): 1.16
